Results reported in PMC2670981, “Divergence of Catalytic Mechanism within a Glycosidase Family Provides Insight into Evolution of Carbohydrate Metabolism by Human Gut Flora” (Chemistry & Biology, 2008).

B1: BtGH97a (Bacteroides thetaiotaomicron VPI-5482) (protein)
chain: QQKLTSPDNNLVMTFQVDSKGAPTYELTYKNKVVIKPSTLGLELKKEDNTRTDFDWVDRRDLTKLDSKTNLYDGFEVKDTQTATFDETWQPVWGEEKEIRNHYNELAVTLYQPMNDRSIVIRFRLFNDGLGFRYEFPQQKSLNYFVIKEEHSQFGMNGDHIAFWIPGDYDTQEYDYTISRLSEIRGLMKEAITPNSSQTPFSQTGVQTALMMKTDDGLYINLHEAALVDYSCMHLNLDDKNMVFESWLTPDAKGDKGYMQTPCNTPWRTIIVSDDARNILASRITLNLNEPCKIADAASWVKPVKYIGVWWDMITGKGSWAYTDELTSVKLGETDYSKTKPNGKHSANTANVKRYIDFAAAHGFDAVLVEGWNEGWEDWFGNSKDYVFDFVTPYPDFDVKEIHRYAARKGIKMMMHHETSASVRNYERHMDKAYQFMADNGYNSVKSGYVGNIIPRGEHHYGQWMNNHYLYAVKKAADYKIMVNAHEATRPTGICRTYPNLIGNESARGTEYESFGGNKVYHTTILPFTRLVGGPMDYTPGIFETHCNKMNPANNSQVRSTIARQLALYVTMYSPLQMAADIPENYERFMDAFQFIKDVALDWDETNYLEAEPGEYITIARKAKDTDDWYVGCTAGENGHTSKLVFDFLTPGKQYIATVYADAKDADWKENPQAYTIKKGILTNKSKLNLHAANGGGYAISIKEVKDKSEAKGLKRL
B2: BtGH97b (Bacteroides thetaiotaomicron VPI-5482) (protein)
chain: QKQFTLASPDGNLKTTITIGDRLTYDITCNGRQILTPSPISMTLDNGTVWGENAKLSGTSRKSVDEMIPSPFYRASELRNHYNGLTLRFKKDWNVEFRAYNDGIAYRFVNQGKKPFRVVTEVSDYCFPSDMTASVPYVKSGKDGDYNSQFFNSFENTYTTDKLSKLNKQRLMFLPLVVDAGDGVKVCITESDLENYPGLYLSASEGANRLSSMHAPYPKRTVQGGHNQLQMLVKEHEDYIAKVDKPRNFPWRIAVVTTTDKDLAATNLSYLLGAPSRMSDLSWIKPGKVAWDWWNDWNLDGVDFVTGVNNPTYKAYIDFASANGIEYVILDEGWAVNLQADLMQVVKEIDLKELVDYAASKNVGIILWAGYHAFERDMENVCRHYAEMGVKGFKVDFMDRDDQEMTAFNYRAAEMCAKYKLILDLHGTHKPAGLNRTYPNVLNFEGVNGLEQMKWSSPSVDQVKYDVMIPFIRQVSGPMDYTQGAMRNASKGNYYPCYSEPMSQGTRCRQLALYVVFESPFNMLCDTPSNYMREPESTAFIAEIPTVWDESIVLDGKMGEYIVTARRKGDVWYVGGITDWSARDIEVDCSFLGDKSYHATLFKDGVNAHRAGRDYKCESFPIKKDGKLKVHLAPGGGFALKIK

Columns and labels:
Conditions in all cases: Ca2+
[1] = substrate: OC[C@H]1O[C@H](O[C@H]2[C@H](O)[C@@H](O)C(O)O[C@@H]2CO)[C@H](O)[C@@H](O)[C@@H]1O; experiment: stopped glucose oxidase/peroxidase assay, Michaelis-Menten (KM) with substrate inhibition; format: biochemical, Bacteroides thetaiotaomicron
[2] = substrate: O=[N+]([O-])c1ccc(O[C@H]2O[C@H](CO)[C@@H](O)[C@H](O)[C@H]2O)cc1; experiment: Michaelis-Menten kinetics (KM) and 1H NMR of hydrolysis; format: biochemical, Bacteroides thetaiotaomicron
[3] = substrate: O=[N+]([O-])c1ccc(O[C@H]2O[C@H](CO)[C@H](O)[C@H](O)[C@H]2O)cc1; experiment: as above; format: biochemical, Bacteroides thetaiotaomicron
purified protein = substrate: OC[C@H]1O[C@H](OC[C@H]2OC(O)[C@H](O)[C@@H](O)[C@@H]2O)[C@H](O)[C@@H](O)[C@H]1O; experiment: purified protein

| Protein | Km [1] | kcat [1] | kcat/Km [1] | Km [2] | kcat [2] | kcat/Km [2] | Km [3] | kcat [3] | kcat/Km [3] | Km (purified protein) | kcat (purified protein) | kcat/Km (purified protein) |
| --- | --- | --- | --- | --- | --- | --- | --- | --- | --- | --- | --- | --- |
| B1 | 2000 ± 400 µM | 0.015 ± 0.002 s⁻¹ | 7.2 M⁻¹ s⁻¹ | 85 ± 9 µM | 53 ± 2 s⁻¹ | 620000 M⁻¹ s⁻¹ | – | – | – | – | – | – |
| B2 | – | – | – | – | – | – | 230 ± 10 µM | 91 ± 2 s⁻¹ | 391000 M⁻¹ s⁻¹ | 1500 ± 170 µM | 0.015 s⁻¹ | 11 M⁻¹ s⁻¹ |
